The assay concerns the target human mutant SOD1 G93A (Cu/Zn superoxide dismutase) (human). Nature of the assay: SEC.

The substance “human mutant SOD1 G93A (Cu/Zn superoxide dismutase) (natural protein)” gave a stoichiometry N of 2.

Source of the values: publication PMC3711648.
